The values that follow come from patent US20110052582A1 (Hoffmann-La Roche, published 2011).

For test [1], the target named is T1, extracellular-domain-(ECD)-comprising fragment of human CDCP1 of SEQ ID NO: 30 (human, UniProt Q9H5V8 30-663).
T1 construct: also called CDCP1 ECD; CDCP1-ECD
T1 sequence: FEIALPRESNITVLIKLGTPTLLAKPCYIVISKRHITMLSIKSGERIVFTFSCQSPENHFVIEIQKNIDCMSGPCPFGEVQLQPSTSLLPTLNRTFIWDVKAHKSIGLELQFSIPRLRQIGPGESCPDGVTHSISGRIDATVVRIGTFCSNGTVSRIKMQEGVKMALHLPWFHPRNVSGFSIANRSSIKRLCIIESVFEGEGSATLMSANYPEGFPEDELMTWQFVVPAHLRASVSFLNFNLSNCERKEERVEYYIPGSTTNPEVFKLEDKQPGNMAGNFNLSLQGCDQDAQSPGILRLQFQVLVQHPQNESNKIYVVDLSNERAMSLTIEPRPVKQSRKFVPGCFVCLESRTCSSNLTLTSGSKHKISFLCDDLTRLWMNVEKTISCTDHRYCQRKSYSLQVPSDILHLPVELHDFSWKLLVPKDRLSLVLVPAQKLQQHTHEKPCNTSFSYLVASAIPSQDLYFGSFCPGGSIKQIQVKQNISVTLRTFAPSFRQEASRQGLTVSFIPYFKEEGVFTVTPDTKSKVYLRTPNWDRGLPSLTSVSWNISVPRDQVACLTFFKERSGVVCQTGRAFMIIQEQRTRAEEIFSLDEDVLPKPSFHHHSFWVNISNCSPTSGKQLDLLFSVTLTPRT
Kind of test: SPR (Biacore T100), antibody captured, CDCP1 ECD as analyte, 25 C, Langmuir 1:1. As to the method:
After conjugation, different anti-CDCP1 antibodies were injected at 25° C. at a flow rate of 5 μL/min, followed by a dilution series (0 nM to 1000 nM) of CDCP1 ECD at 30 μL/min. As running buffer for the binding experiment PBS/0.1% BSA was used. The chip was then regenerated with a 60s pulse of 10 mM glycine-HCl, pH 2.0 solution.
Calculation of thermodynamic parameters (KD, binding constant) and kinetic parameters (kₒₙ rate, koff rate) were calculated using a Langmuir 1:1 binding model.

The target of test [2] is T2, Soluble CDCP1 extracellular domain (CDCP1-ECD) (SEQ ID NO:30) fused to Streptavidin Binding Protein (SBP) (human, UniProt Q9H5V8 30-663).
T2 construct: also called SBP-CDCP1-ECD
T2 sequence: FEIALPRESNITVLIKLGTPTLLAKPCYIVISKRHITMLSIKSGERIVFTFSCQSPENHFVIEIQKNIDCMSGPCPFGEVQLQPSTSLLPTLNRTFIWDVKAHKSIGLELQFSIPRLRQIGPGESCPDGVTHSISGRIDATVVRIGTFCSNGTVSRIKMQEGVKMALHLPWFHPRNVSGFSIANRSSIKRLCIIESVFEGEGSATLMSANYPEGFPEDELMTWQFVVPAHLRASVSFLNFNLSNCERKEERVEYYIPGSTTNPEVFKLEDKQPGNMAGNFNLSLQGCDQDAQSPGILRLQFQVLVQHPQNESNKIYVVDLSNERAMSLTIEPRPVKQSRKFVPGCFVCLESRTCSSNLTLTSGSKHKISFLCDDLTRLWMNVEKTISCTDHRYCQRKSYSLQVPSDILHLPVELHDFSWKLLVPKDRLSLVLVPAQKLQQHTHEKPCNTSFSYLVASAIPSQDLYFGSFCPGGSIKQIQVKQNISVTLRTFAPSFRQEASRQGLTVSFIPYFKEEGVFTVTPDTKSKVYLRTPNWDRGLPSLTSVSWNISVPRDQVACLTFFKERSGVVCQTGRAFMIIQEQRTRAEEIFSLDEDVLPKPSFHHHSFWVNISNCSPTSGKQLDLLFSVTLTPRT
Put plainly: ELISA on captured SBP-CDCP1-ECD, ratio relative to chimeric CUB4 (chHC4). In short, it runs like this:
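Streptavidin plates coated overnight at 2–8° C with SBP-CDCP1-ECD HEK293 supernatant (1:15–1:40). Antibodies, undiluted or 12-step dilution, bound 90 min at room temperature; HRP anti-human IgG 1 h, ABTS read at 405/492 nm, signal expressed relative to chimeric chHC4 reference.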
On the technique in general: ELISA stands for enzyme-linked immunosorbent assay.

B1: Humanized CUB4 Antibody No. 91 (antibody, IgG1, V domains shown)
VH: EVQLVESGGGLVQPGGSLRLSCAASGFTFNSYGMSWVRQAPGKGLEWVATISSGGSYKYYVDSVKGRFTISRDNAKNSLYLQMNSLRAEDTAVYYCARHPDYDGVWFAYWGQGTLVTVSS
VL: EIVLTQSPATLSLSPGERATLSCSVSSSVFYVHWYQQKPGQAPRLLIYDTSKLASGIPARFSGSGSGTDFTLTISSLEPEDFAVYYCQQWNSNPPTFGGGTKVEIK
notes: Only variable domains are tied to the antibody; Human constant region, preferably IgG1; also called hHC4-H / hLC-a
What is called Kd is the constant that tells how readily two partners part at equilibrium. Low values mean a tighter complex, high ones a looser complex. A word on the koff: it is the rate constant with which the complex falls apart. Higher therefore signals a short-lived complex. As usually defined, the kon is the rate constant with which the complex forms. Lower therefore signals slower complex formation. B1: in test [1], the Kd was 5.6 nM, the koff was 0.001 s⁻¹, the kon was 180000 M⁻¹ s⁻¹ and the t½ diss. was found to be 11.2 min. In addition, in test [2], the relative binding ratio came out at 0.51.

B2: chHC4 / hLC4-I (antibody, V domains shown)
VH: EVQLVESGGDLVKPGGSLKLSCAASGFTFNSYGMSWVRQTPDKRLEWVATISSGGSYTYYPDSVKGRFTISRDNAKNTLYLQMSSLKSEDTAMYYCARHPDYDGVWFAYWGQGTLVTVSA
VL: EIVMTQSPATLSLSPGERATLSCRASSSVFYLSWYQQKPGQAPRLWIYDTSKLASGIPARFSGSGSGTDFTLTISSLQPEDFAVYYCQQWNSNPPTFGGGTKVEIK
Turning to B2, the binding result in test [2] is given as “no binding”.

B3: hHC4-K / hLC4-d (antibody, V domains shown)
VH: EVQLVESGGGLVKPGGSLRLSCAASGFTFNSYGMSWVRQAPGKGLEWVSSISSGGSYIYYADSVKGRFTISRDNAKNSLYLQMNSLRAEDTAVYYCARHPDYDGVWFAYWGQGTLVTVSS
VL: EIVMTQSPATLSVSPGERATLSCSVSSSVFYVHWYQQKPGQAPRLLIYDTSKLASGIPARFSGSGSGTEYTLTISSLQSEDFAVYYCQQWNSNPPTFGGGTKVEIK
On to B3, for which the binding result in test [2] is “no binding”.

B4: hHC4-H / hLC4-d (antibody, V domains shown)
VH: EVQLVESGGGLVQPGGSLRLSCAASGFTFNSYGMSWVRQAPGKGLEWVATISSGGSYKYYVDSVKGRFTISRDNAKNSLYLQMNSLRAEDTAVYYCARHPDYDGVWFAYWGQGTLVTVSS
VL: EIVMTQSPATLSVSPGERATLSCSVSSSVFYVHWYQQKPGQAPRLLIYDTSKLASGIPARFSGSGSGTEYTLTISSLQSEDFAVYYCQQWNSNPPTFGGGTKVEIK
notes: also called Humanized CUB4 Antibody No. 124
With B4, the relative binding ratio in test [2] came to 0.34.

B5: hHC4-03 / hLC4-d (antibody, V domains shown)
VH: EVQLLESGGGLVQPGGSLRLSCAASGFTFNSYGMSWVRQAPGKGLEWVSAISSGGSYTYYPDSVKGRFTISRDNSKNTLYLQMNSLRAEDTAVYYCAKHPDYDGVWFAYWGQGTLVTVSS
VL: EIVMTQSPATLSVSPGERATLSCSVSSSVFYVHWYQQKPGQAPRLLIYDTSKLASGIPARFSGSGSGTEYTLTISSLQSEDFAVYYCQQWNSNPPTFGGGTKVEIK
Consider B5, for which, in test [2], the relative binding ratio amounted to 0.07.

B6: hHC4-b / hLC4-c (antibody, V domains shown)
VH: EVQLVESGGGLVKPGGSLRLSCAASGFTFNSYSMNWVRQAPGKGLEWVSSISSGGSYIYYADSVKGRFTISRDNAKNSLYLQMNSLRAEDTAVYYCARHPDYDGVWFAYWGQGTLVTVSS
VL: EIVMTQSPATLSVSPGERATLSCSVSSSVFYVHWYQQKPGQAPRLLIYDTSKLASGIPARFSGSGSGTEFTLTISSLQSEDFAVYYCQQWNSNPPTFGGGTKVEIK
Consider B6, for which, in test [2], the binding result is recorded as “no binding”.

B7: hHC4-d / hLC4-d (antibody, V domains shown)
VH: EVQLLESGGGLVQPGGSLRLSCAASGFTFNSYGMSWVRQAPGKGLEWVSTISSGGSYTYYPDSVKGRFTISRDNSKNTLYLQMNSLRAEDTAVYYCAKHPDYDGVWFAYWGQGTLVTVSS
VL: EIVMTQSPATLSVSPGERATLSCSVSSSVFYVHWYQQKPGQAPRLLIYDTSKLASGIPARFSGSGSGTEYTLTISSLQSEDFAVYYCQQWNSNPPTFGGGTKVEIK
B7: the relative binding ratio in test [2] turned out to be 0.41.

B8: hHC4-04 / hLC4-d (antibody, V domains shown)
VH: EVQLLESGGGLVQPGGSLRLSCAASGFTFNSYGMSWVRQAPGKGLEWVSTISSGGSYTYYPDSVKGRFTISRDNSKNTLYLQMNSLRAEDTAVYYCARHPDYDGVWFAYWGQGTLVTVSS
VL: EIVMTQSPATLSVSPGERATLSCSVSSSVFYVHWYQQKPGQAPRLLIYDTSKLASGIPARFSGSGSGTEYTLTISSLQSEDFAVYYCQQWNSNPPTFGGGTKVEIK
For B8, the relative binding ratio in test [2] is 0.41.

B9: hHC4-b / hLC4-d (antibody, V domains shown)
VH: EVQLVESGGGLVKPGGSLRLSCAASGFTFNSYSMNWVRQAPGKGLEWVSSISSGGSYIYYADSVKGRFTISRDNAKNSLYLQMNSLRAEDTAVYYCARHPDYDGVWFAYWGQGTLVTVSS
VL: EIVMTQSPATLSVSPGERATLSCSVSSSVFYVHWYQQKPGQAPRLLIYDTSKLASGIPARFSGSGSGTEYTLTISSLQSEDFAVYYCQQWNSNPPTFGGGTKVEIK
In the case of B9, the binding result in test [2] was “no binding”.

B10: hHC4-07 / hLC4-d (antibody, V domains shown)
VH: EVQLLESGGGLVQPGGSLRLSCAASGFTFNSYAMSWVRQAPGKGLEWVSTISSGGSYTYYPDSVKGRFTISRDNSKNTLYLQMNSLRAEDTAVYYCAKHPDYDGVWFAYWGQGTLVTVSS
VL: EIVMTQSPATLSVSPGERATLSCSVSSSVFYVHWYQQKPGQAPRLLIYDTSKLASGIPARFSGSGSGTEYTLTISSLQSEDFAVYYCQQWNSNPPTFGGGTKVEIK
For the molecule B10, in test [2], the relative binding ratio is 0.04.

B11: Humanized CUB4 Antibody No. 102 (antibody, IgG1, V domains shown)
VH: EVQLVESGGGLVQPGGSLRLSCAASGFTFNSYGMSWVRQAPGKGLEWVATISSGGSYKYYVDSVKGRFTISRDNAKNSLYLQMNSLRAEDTAVYYCARHPDYDGVWFAYWGQGTLVTVSS
VL: EIVLTQSPATLSLSPGERATLSCSVSSSVFYVHWYQQKPGQAPRLLIYDTSKLASGIPARFSGSGSGTDYTLTISSLEPEDFAVYYCQQWNSNPPTFGGGTKVEIK
notes: Only variable domains are tied to the antibody; Human constant region, preferably IgG1; also called hHC4-H / hLC-b
With B11, in test [1], the Kd came out at 5.4 nM, the koff was determined as 0.0011 s⁻¹, the kon stood at 190000 M⁻¹ s⁻¹ and the t½ diss. turned out to be 11 min. For the same molecule, in test [2], the relative binding ratio turned out to be 0.53.

B12: chHC4 / hLC4-f (antibody, V domains shown)
VH: EVQLVESGGDLVKPGGSLKLSCAASGFTFNSYGMSWVRQTPDKRLEWVATISSGGSYTYYPDSVKGRFTISRDNAKNTLYLQMSSLKSEDTAMYYCARHPDYDGVWFAYWGQGTLVTVSA
VL: DIQMTQSPSSLSASVGDRVTITCSVSSSVFYVHWYQQKPGKAPKLLIYDTSKLASGVPSRFSGSGSGTDYTFTISSLQPEDIATYYCQQWNSNPPTFGGGTKVEIK
Take B12: in test [2], the relative binding ratio came to 0.24.
